Experimental data: patent US6379950 (THOMAS JEFFERSON UNIVERSITY, dated 2002)
fmk = not defined here

T1: C-terminus of lamin A, P02545
T1 chain: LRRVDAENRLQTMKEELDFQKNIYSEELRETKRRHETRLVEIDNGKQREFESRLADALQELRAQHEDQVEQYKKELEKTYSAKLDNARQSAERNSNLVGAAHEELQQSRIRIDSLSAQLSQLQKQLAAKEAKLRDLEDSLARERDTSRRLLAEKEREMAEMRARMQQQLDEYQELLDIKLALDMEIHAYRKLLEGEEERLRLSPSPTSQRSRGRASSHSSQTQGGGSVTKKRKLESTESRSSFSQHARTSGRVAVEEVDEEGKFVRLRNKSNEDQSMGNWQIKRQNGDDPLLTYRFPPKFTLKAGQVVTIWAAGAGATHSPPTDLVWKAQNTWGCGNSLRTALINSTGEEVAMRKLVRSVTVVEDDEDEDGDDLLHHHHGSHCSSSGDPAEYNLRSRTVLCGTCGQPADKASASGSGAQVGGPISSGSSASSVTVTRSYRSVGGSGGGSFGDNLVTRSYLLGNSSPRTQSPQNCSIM

T2: rev-caspase-3 (human, UniProt P42574 1-175, limits assumed)
T2 sequence: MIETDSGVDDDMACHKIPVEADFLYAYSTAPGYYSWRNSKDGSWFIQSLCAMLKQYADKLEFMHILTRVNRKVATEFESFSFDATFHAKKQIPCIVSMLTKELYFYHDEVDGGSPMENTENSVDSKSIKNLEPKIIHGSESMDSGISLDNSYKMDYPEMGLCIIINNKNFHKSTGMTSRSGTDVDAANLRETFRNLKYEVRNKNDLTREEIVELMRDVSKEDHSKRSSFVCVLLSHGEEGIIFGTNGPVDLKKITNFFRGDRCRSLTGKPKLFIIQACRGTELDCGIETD

B1: caspase-3 (wild type) (protein)
chain: MENTENSVDSKSIKNLEPKIIHGSESMDSGISLDNSYKMDYPEMGLCIIINNKNFHKSTGMTSRSGTDVDAANLRETFRNLKYEVRNKNDLTREEIVELMRDVSKEDHSKRSSFVCVLLSHGEEGIIFGTNGPVDLKKITNFFRGDRCRSLTGKPKLFIIQACRGTELDCGIETDSGVDDDMACHKIPVDADFLYAYSTAPGYYSWRNSKDGSWFIQSLCAMLKQYADKLEFMHILTRVNRKVATEFESFSFDATFHAKKQIPCIVSMLTKELYFYH
B2: caspase-6 (wild type) (protein)
chain: MSSASGLRRGHPAGGEENMTETDAFYKREMFDPAEKYKMDHRRRGIALIFNHERFFWHLTLPERRGTCADRDNLTRRFSDLGFEVKCFNDLKAEELLLKIHEVSTVSHADADCFVCVFLSHGEGNHIYAYDAKIEIQTLTGLFKGDKCHSLVGKPKIFIIQACRGNQHDVPVIPLDVVDNQTEKLDTNITEVDAASVYTLPAGADFLMCYSVAEGYYSHRETVNGSWYIQDLCEMLGKYGSSLEFTELLTLVNRKVSQRRVDFCKDPSAIGKKQVPCFASMLTKKLHFFPKSN
B3: rev-caspase-3 (protein)
chain: T2 sequence
B4: rev-caspase-6 (protein)
chain: MVEIDAASVYTLPAGADFLMCYSVAEGYYSHRETVNGSWYIQDLCEMLGKYGSSLEFTELLTLVNRKVSQRRVDFCKDPSAIGKKQVPCFASMLTKKLHFFPKSNLEHHHHHHVEIDGGSPMSSASGLRRGHPAGGEENMTETDAFYKREMFDPAEKYKMDHRRRGIALIFNHERFFWHLTLPERRGTCADRDNLTRRFSDLGFEVKCFNDLKAEELLLKIHEVSTVSHADADCFVCVFLSHGEGNHIYAYDAKIEIQTLTGLFKGDKCHSLVGKPKIFIIQACRGNQHDVPVIPLDVVD

Biological target: T1, C-terminus of lamin A, P02545
Experiment: not given

Binder	substrate cleavage (bacterial extract incubated with 35S-labelled lamin A C-terminus, autoradiography)
B1	both caspase-6 variants, but not caspase-3 variants efficiently cleaved lamin
B2	both caspase-6 variants, but not caspase-3 variants efficiently cleaved lamin
B3	both caspase-6 variants, but not caspase-3 variants efficiently cleaved lamin
B4	both caspase-6 variants, but not caspase-3 variants efficiently cleaved lamin

Each binder was assayed against poly(ADP) ribose polymerase (PARP), P09874 (assay: not given).
Chain of poly(ADP) ribose polymerase (PARP), P09874 (P09874 whole entry, looked up): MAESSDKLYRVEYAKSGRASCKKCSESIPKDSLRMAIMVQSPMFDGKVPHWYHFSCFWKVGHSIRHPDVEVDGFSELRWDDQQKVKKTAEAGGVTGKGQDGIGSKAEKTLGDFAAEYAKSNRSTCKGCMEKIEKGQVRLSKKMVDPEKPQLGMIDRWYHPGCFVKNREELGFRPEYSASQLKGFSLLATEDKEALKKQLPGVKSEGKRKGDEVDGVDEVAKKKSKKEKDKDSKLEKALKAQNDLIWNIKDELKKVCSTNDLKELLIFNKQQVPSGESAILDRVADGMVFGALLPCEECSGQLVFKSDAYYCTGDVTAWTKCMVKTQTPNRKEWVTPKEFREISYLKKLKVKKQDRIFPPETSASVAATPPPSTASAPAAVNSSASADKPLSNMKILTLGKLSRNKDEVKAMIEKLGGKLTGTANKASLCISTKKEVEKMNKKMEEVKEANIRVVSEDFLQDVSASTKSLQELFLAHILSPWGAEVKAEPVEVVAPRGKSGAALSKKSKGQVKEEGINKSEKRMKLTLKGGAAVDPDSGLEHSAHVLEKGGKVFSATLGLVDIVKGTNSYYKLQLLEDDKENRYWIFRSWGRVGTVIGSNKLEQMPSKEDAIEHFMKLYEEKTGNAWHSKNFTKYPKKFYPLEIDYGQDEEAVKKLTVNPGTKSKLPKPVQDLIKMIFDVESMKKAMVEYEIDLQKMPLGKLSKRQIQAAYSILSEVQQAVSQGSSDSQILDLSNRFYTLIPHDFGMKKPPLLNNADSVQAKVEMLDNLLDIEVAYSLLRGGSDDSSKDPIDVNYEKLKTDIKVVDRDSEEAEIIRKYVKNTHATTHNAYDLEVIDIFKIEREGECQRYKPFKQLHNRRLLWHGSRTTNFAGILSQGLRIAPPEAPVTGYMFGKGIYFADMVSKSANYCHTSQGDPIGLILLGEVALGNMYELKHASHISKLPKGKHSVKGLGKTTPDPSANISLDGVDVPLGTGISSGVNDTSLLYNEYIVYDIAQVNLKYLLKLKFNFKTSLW

Binder	substrate cleavage (bacterial extract incubated with purified PARP, Western blot)
B1	Both caspase-3 variants (rev and WT), but not caspase-6 variants efficiently cleaved PARP
B2	Both caspase-3 variants (rev and WT), but not caspase-6 variants efficiently cleaved PARP
B3	Both caspase-3 variants (rev and WT), but not caspase-6 variants efficiently cleaved PARP
B4	Both caspase-3 variants (rev and WT), but not caspase-6 variants efficiently cleaved PARP

Each binder was assayed against T2, rev-caspase-3 (assay: cell-based or functional assay).

amount of inhibitor required for complete inhibition, relative to DEVD-CHO [fold]	Binder
~10	{code z}-Val-Ala-Asp-fmk (reading uncertain; also: printed as z-VAD-fmk) [z-VAD-fmk]
